Bridge positions count the residues as written; N and C are the ends. Square brackets hold non-standard residues; d marks the D form. Ends that are not written are not given here. Aib = CC(C)(N)C(=O)O
B1: glucagon derivative of SEQ ID NO: 29 (peptide)
peptide: Y[Aib]QGTFTSDYSKCLDERRAKDFVQWLMNT
modifications: lactam 16-20
B2: glucagon derivative of SEQ ID NO: 38 (peptide)
peptide: Y[Aib]QGTFCSDYSKYLDERRAKEFVQWLMNT
modifications: lactam 16-20
B3: glucagon derivative of SEQ ID NO: 33 (peptide)
peptide: YXQGTFTSDYSKYLDSRRAQDFVQWLMNT
modifications: X at position 2 = aminoisobutyric acid (Aib)
B4: glucagon derivative of SEQ ID NO: 39 (peptide)
peptide: Y[Aib]QGTFVSDCSKYLDERRAKDFVQWLMNT
modifications: lactam 16-20
B5: glucagon derivative of SEQ ID NO: 24 (peptide)
peptide: Y[Aib]QGTFTSDYSKCLDEKRAKEFVQWLMNT
modifications: lactam 16-20
B6: glucagon derivative of SEQ ID NO: 41 (peptide)
peptide: Y[Aib]QGTFCSDYSKYLDERRAKDFVQWLMNT
modifications: lactam 16-20
B7: glucagon derivative of SEQ ID NO: 23 (peptide)
peptide: Y[Aib]QGTFTSDYSKYCDEKRAKEFVQWLMNT
modifications: lactam 16-20
B8: glucagon derivative of SEQ ID NO: 36 (peptide)
peptide: Y[Aib]QGTFTSDCSKYLDERRAKEFVQWLMNT
modifications: lactam 16-20
B9: glucagon derivative of SEQ ID NO: 30 (peptide)
peptide: W[Aib]QGTFTSDYSKCLDERRAKDFVQWLMNT
modifications: lactam 16-20
B10: glucagon derivative of SEQ ID NO: 26 (peptide)
peptide: W[Aib]QGTFTSDYSKYLDECRAKDFVQWLMNT
modifications: lactam 16-20
B11: glucagon derivative of SEQ ID NO: 42 (peptide)
peptide: Y[Aib]QGTFCSDYSKYLDSRRAQDFVQWLMNT
B12: glucagon derivative of SEQ ID NO: 40 (peptide)
peptide: Y[Aib]QGTFVSDYSKYLDERRAKDFVQWLMNTC
modifications: lactam 16-20
B13: glucagon derivative of SEQ ID NO: 35 (peptide)
peptide: Y[Aib]QGTFTSDYSKYCDERRAKEFVQWLMNT
modifications: lactam 16-20
B14: glucagon derivative of SEQ ID NO: 8 (peptide)
peptide: Y[Aib]QGTFTSDYSKYLDSCDAQDFVQWLINT
B15: glucagon derivative of SEQ ID NO: 9 (peptide)
peptide: Y[Aib]QGTFTSDYSKYLDSCDAQDFVVWLINT
B16: glucagon derivative of SEQ ID NO: 16 (peptide)
peptide: Y[Aib]QGTFTSDYSKYLDCRRAQVFVQWLMRT
B17: glucagon derivative of SEQ ID NO: 44 (peptide)
peptide: YXQGTFTSDYSKYLDSRRAQDFVQWLMNTC
modifications: X at position 2 = aminoisobutyric acid (Aib)
B18: glucagon derivative of SEQ ID NO: 13 (peptide)
peptide: Y[Aib]QGTFTSDYSCYLDSRRAQDFVQWLMNT
B19: glucagon derivative of SEQ ID NO: 11 (peptide)
peptide: Y[Aib]QGTFTSDYSKYLDEKCAKEFVQWLMNT
modifications: not fully specified (bridges)
B20: glucagon derivative of SEQ ID NO: 14 (peptide)
peptide: Y[Aib]QGTFTSDYSKYLDCKRAKEFVQWLMNT
modifications: not fully specified (bridges)
B21: glucagon derivative of SEQ ID NO: 4 (peptide)
peptide: HSQGTFTSDYSKYLDSCDAQDFVQWLMNT
B22: glucagon derivative of SEQ ID NO: 3 (peptide)
peptide: HSQGTFTSDYSKYLDCERAQDFVQWLMNT
B23: glucagon derivative of SEQ ID NO: 28 (peptide)
peptide: W[Aib]QGTFVSDYSKYLDECRAKDFVQWLMNT
modifications: lactam 16-20
B24: glucagon derivative of SEQ ID NO: 45 (peptide)
peptide: Y[Aib]QGTFTSDYSCYLDEKRAKEFVQWLMNT
B25: glucagon derivative of SEQ ID NO: 19 (peptide)
peptide: Y[Aib]QGTFTSDYSKYLCEKRAKEFVQWLMNT
modifications: lactam 16-20
B26: glucagon derivative of SEQ ID NO: 31 (peptide)
peptide: Y[Aib]QGTFTSDYSKYLDCKRAKEFVQWLMNT
modifications: lactam 17-21
B27: glucagon derivative of SEQ ID NO: 27 (peptide)
peptide: Y[Aib]QGTFVSDYSKYLDECRAKDFVQWLMNT
modifications: lactam 16-20
B28: glucagon derivative of SEQ ID NO: 32 (peptide)
peptide: SQGTFTSDYSKYLDECRAKEFVQWLMNT
modifications: lactam 15-19
B29: glucagon derivative of SEQ ID NO: 10 (peptide)
peptide: Y[Aib]QGTFTSDYSKYLDSCDADDFVVWLINT
B30: glucagon derivative of SEQ ID NO: 22 (peptide)
peptide: Y[Aib]QGTFTSDYSKYLDEKRCKEFVQWLMNT
modifications: lactam 16-20
B31: glucagon derivative of SEQ ID NO: 7 (peptide)
peptide: YSQGTFTSDYSKYLDSCEADDFVQWLMNT
B32: glucagon derivative of SEQ ID NO: 37 (peptide)
peptide: Y[Aib]QGTFTSDYSKYLDERRAKEFVQWLMNTC
modifications: lactam 16-20
B33: glucagon derivative of SEQ ID NO: 18 (peptide)
peptide: Y[Aib]QGTFTSDYSKYLDSRRACDFRLWLMNT
B34: glucagon derivative of SEQ ID NO: 20 (peptide)
peptide: Y[Aib]QGTFTSDYSKYLDECRAKEFVQWLMNT
modifications: lactam 16-20
B35: glucagon derivative of SEQ ID NO: 43 (peptide)
peptide: Y[Aib]QGTFTSDCSKYLDSRRAQDFVQWLMNT
B36: glucagon derivative of SEQ ID NO: 25 (peptide)
peptide: Y[Aib]QGTFTSDYSKYLDEKRAKCFVQWLMNT
modifications: lactam 16-20
B37: glucagon derivative of SEQ ID NO: 6 (peptide)
peptide: HSQGTFTSDYSKYLDSCEADDFVQWLMNT
B38: glucagon derivative of SEQ ID NO: 15 (peptide)
peptide: Y[Aib]QGTFTSDYSKYLCEKRAQDFVVWLMNT
B39: glucagon derivative of SEQ ID NO: 12 (peptide)
peptide: Y[Aib]QGTFTSDYSKYLDEKRAKEFVQWLMNTC
modifications: lactam 16-20
B40: glucagon derivative of SEQ ID NO: 5 (peptide)
peptide: HSQGTFTSDYSKYLDSCEAQDFVQWLMNT
B41: glucagon derivative of SEQ ID NO: 34 (peptide)
peptide: W[Aib]QGTFTSDYSKYCDERRAKEFVQWLMNT
modifications: lactam 16-20
B42: glucagon derivative of SEQ ID NO: 17 (peptide)
peptide: Y[Aib]QGTFTSDYSKYLDCVRAQDFVQWLMRT
B43: glucagon derivative of SEQ ID NO: 2 (peptide)
peptide: HSQGTFTSDYSKYLDCDRAQDFVQWLMNT
B44: glucagon derivative of SEQ ID NO: 21 (peptide)
peptide: Y[Aib]QGTFTSDYSKYLDEKCAKEFVQWLMNT
modifications: lactam 16-20

Molecular target: human glucagon receptor (human, UniProt P47871 26-477)
Sequence (P47871 26-477): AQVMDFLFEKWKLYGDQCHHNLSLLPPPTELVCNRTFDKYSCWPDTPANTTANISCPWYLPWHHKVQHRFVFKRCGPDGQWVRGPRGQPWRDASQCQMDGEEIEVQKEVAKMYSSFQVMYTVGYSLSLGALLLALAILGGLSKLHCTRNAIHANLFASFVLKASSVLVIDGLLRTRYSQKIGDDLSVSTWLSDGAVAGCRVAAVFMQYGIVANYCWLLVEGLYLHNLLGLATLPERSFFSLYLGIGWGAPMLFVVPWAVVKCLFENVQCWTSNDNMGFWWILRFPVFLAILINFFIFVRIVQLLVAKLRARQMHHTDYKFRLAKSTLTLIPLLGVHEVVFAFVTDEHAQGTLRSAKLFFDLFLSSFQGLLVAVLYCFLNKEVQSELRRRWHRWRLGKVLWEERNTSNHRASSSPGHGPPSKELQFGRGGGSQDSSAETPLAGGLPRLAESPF
Assay: cell-based or functional assay

First: B1
Second: B2
The “In vitro Activity (relative activity to SEQ ID NO: 1, %); cAMP assay, from EC50” value of the first is lower: 61.3% for the first, 167% for the second.

First: B3
Second: B4
The “In vitro Activity (relative activity to SEQ ID NO: 1, %); cAMP assay, from EC50” value of the first is higher: 108% for the first, 3.7% for the second.

First: B5
Second: B6
The “In vitro Activity (relative activity to SEQ ID NO: 1, %); cAMP assay, from EC50” value of the first is higher: 58% for the first, 45.2% for the second.

Going from B7 to B8, the “In vitro Activity (relative activity to SEQ ID NO: 1, %); cAMP assay, from EC50” value falls from 76.8% to 9.9%.

Compared with B9, B10 is higher in “In vitro Activity (relative activity to SEQ ID NO: 1, %); cAMP assay, from EC50” value: 0.3% for the first, 1% for the second.

Compared with B11, B12 is higher in “In vitro Activity (relative activity to SEQ ID NO: 1, %); cAMP assay, from EC50” value: 37.9% for the first, 40.8% for the second.

Going from B13 to B14, the “In vitro Activity (relative activity to SEQ ID NO: 1, %); cAMP assay, from EC50” value falls from 17.7% to < 0.1%.

First: B15
Second: B16
The “In vitro Activity (relative activity to SEQ ID NO: 1, %); cAMP assay, from EC50” value of the first is lower: < 0.1% for the first, 4.2% for the second.

First: B17
Second: B18
The “In vitro Activity (relative activity to SEQ ID NO: 1, %); cAMP assay, from EC50” value of the first is higher: 75.4% for the first, 5.2% for the second.

Going from B19 to B20, the “In vitro Activity (relative activity to SEQ ID NO: 1, %); cAMP assay, from EC50” value rises from 4.6% to 18.1%.

First: B21
Second: B22
The “In vitro Activity (relative activity to SEQ ID NO: 1, %); cAMP assay, from EC50” value of the first is lower: < 0.1% for the first, 6.1% for the second.

First: B23
Second: B24
The “In vitro Activity (relative activity to SEQ ID NO: 1, %); cAMP assay, from EC50” value of the first is lower: < 0.1% for the first, 5.2% for the second.

Going from B25 to B26, the “In vitro Activity (relative activity to SEQ ID NO: 1, %); cAMP assay, from EC50” value falls from 12.1% to 6.3%.

Going from B27 to B28, the “In vitro Activity (relative activity to SEQ ID NO: 1, %); cAMP assay, from EC50” value falls from 93.6% to 0.7%.

Going from B29 to B30, the “In vitro Activity (relative activity to SEQ ID NO: 1, %); cAMP assay, from EC50” value rises from < 0.1% to 148%.

Going from B31 to B32, the “In vitro Activity (relative activity to SEQ ID NO: 1, %); cAMP assay, from EC50” value rises from < 0.1% to 226%.

Compared with B33, B34 is higher in “In vitro Activity (relative activity to SEQ ID NO: 1, %); cAMP assay, from EC50” value: < 0.1% for the first, 300% for the second.

Compared with B35, B36 is higher in “In vitro Activity (relative activity to SEQ ID NO: 1, %); cAMP assay, from EC50” value: 1.6% for the first, 46.9% for the second.

Compared with B37, B38 is higher in “In vitro Activity (relative activity to SEQ ID NO: 1, %); cAMP assay, from EC50” value: < 0.1% for the first, 1.1% for the second.

Going from B39 to B40, the “In vitro Activity (relative activity to SEQ ID NO: 1, %); cAMP assay, from EC50” value falls from 56.3% to 0.3%.

Going from B41 to B42, the “In vitro Activity (relative activity to SEQ ID NO: 1, %); cAMP assay, from EC50” value rises from 0.2% to 23.2%.

Going from B43 to B44, the “In vitro Activity (relative activity to SEQ ID NO: 1, %); cAMP assay, from EC50” value rises from 0.6% to 57.8%.

From patent US20230310631A1, “THERAPEUTIC USE OF GLUCAGON DERIVATIVE OR CONJUGATE THEREOF FOR LIVER DISEASE” (HANMI PHARM. CO., LTD., priority 2020, published 2023)
